{
  "source": "patent US20250282828A1",
  "about": "“PEPTIDES FOR THE TREATMENT OF RESPIRATORY INFECTIONS OF VIRAL ORIGIN” (CENTRO DE INGENIERÍA GENÉTICA Y BIOTECNOLOGÍA, priority 2020, published 2025)",
  "key": {"SARS-CoV-2 [1]": {"test_system": "SARS-CoV-2", "test": "microbe, parasite or virus in culture", "details": "Severe acute respiratory syndrome coronavirus 2, Vero C1008, read-out: IC50 Compound"}, "SARS-CoV-2 [2]": {"test_system": "SARS-CoV-2", "details": "VeroE6"}, "viral proteins": {"test_system": "viral proteins", "test": "BIACORE surface plasmon resonance interaction, all proteins evaluated", "assay_type": "binding"}, "SARS-CoV-2 [3]": {"test_system": "SARS-CoV-2", "details": "96 h, 100 μM"}, "SARS-CoV-2 [4]": {"test_system": "SARS-CoV-2"}, "[5]": {"target": "T1, nucleocapsid protein of the SARS-CoV-2 virus (N protein) (SARS-CoV-2), P0DTC9"}, "[6]": {"target": "T2, envelope protein of the Zika virus (ZIKV E) (Zika virus), Q32ZE1", "T2 chain": "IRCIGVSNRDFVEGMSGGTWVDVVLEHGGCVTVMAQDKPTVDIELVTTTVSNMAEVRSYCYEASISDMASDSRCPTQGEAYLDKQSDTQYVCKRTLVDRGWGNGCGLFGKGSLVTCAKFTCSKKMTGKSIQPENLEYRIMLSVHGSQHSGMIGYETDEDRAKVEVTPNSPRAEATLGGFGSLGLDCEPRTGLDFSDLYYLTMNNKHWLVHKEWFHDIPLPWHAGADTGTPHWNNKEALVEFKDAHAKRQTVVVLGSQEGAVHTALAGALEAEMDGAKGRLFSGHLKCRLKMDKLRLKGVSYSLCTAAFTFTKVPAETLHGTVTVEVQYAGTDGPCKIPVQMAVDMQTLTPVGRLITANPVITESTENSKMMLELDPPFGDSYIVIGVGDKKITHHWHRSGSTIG", "test": "SPR (BIACORE)"}, "[7]": {"target": "T3, Dengue 2 virus capsid protein (Dengue virus 2), P29990", "T3 chain": "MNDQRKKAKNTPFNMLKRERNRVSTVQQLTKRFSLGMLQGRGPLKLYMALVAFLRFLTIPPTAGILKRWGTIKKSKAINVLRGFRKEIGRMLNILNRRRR", "test": "SPR (BIACORE); Peptide SEQ ID NO: 1"}, "[8]": {"target": "T1, nucleocapsid protein of the SARS-CoV-2 …", "test": "SPR (BIACORE); Peptide SEQ ID NO: 1"}, "[9]": {"target": "T3, Dengue 2 virus capsid protein (Dengue …)"}, "[10]": {"target": "T2, envelope protein of the Zika virus …"}, "[11]": {"target": "T4, non-structural protein 1 of the Dengue virus 2 (NS1-D2) (Dengue virus 2), P29990", "T4 chain": "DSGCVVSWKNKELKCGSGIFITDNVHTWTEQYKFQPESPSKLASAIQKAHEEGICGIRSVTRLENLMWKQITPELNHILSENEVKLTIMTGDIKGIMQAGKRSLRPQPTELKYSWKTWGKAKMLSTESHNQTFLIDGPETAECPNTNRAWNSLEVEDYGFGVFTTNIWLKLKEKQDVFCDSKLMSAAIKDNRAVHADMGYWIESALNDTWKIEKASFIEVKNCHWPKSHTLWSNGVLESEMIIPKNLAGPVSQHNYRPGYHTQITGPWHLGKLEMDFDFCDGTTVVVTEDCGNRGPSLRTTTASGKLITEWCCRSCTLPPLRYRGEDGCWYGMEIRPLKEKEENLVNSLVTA"}, "[12]": {"target": "T3, Dengue 2 virus capsid protein (Dengue …)", "test": "SPR (BIACORE); Peptide SEQ ID NO: 2"}, "[13]": {"target": "T1, nucleocapsid protein of the SARS-CoV-2 …", "test": "SPR (BIACORE); Peptide SEQ ID NO: 2"}, "[14]": {"target": "T3, Dengue 2 virus capsid protein (Dengue …)", "test": "SPR (BIACORE)"}, "[15]": {"target": "T1, nucleocapsid protein of the SARS-CoV-2 …", "test": "SPR (BIACORE)"}},
  "note": "Where two headings read alike, the source gives them in different places. No end group written: not given here.",
  "data": [
    {"molecule": "NC(=O)c1nc(F)c[nH]c1=O", "note": "[Favipiravir]", "values": [
      {"measurement": "IC50", "setting": "SARS-CoV-2 [1]", "result": 65300, "unit": "nM"}
    ]},
    {"molecule": "N=C(N)c1ccc2cc(OC(=O)c3ccc(N=C(N)N)cc3)ccc2c1", "note": "[Nafamostat]", "values": [
      {"measurement": "IC50", "setting": "SARS-CoV-2 [1]", "result": 20100, "unit": "nM"}
    ]},
    {"molecule": "CCC(CC)COC(=O)[C@H](C)N[P@](=O)(OC[C@H]1O[C@@](C#N)(c2ccc3c(N)ncnn23)[C@H](O)[C@@H]1O)Oc1ccccc1", "note": "[Remdisivir]", "values": [
      {"measurement": "IC50", "setting": "SARS-CoV-2 [1]", "result": 2400, "unit": "nM"}
    ]},
    {"molecule": "NC(=O)c1ncn([C@@H]2O[C@H](CO)[C@@H](O)[C@H]2O)n1", "note": "[Ribavirin]", "values": [
      {"measurement": "IC50", "setting": "SARS-CoV-2 [1]", "result": 40200, "unit": "nM"}
    ]},
    {"molecule": "Ivermectin", "values": [
      {"measurement": "IC50", "setting": "SARS-CoV-2 [2]; read-out: IC50 Compound + peptide SEQ ID NO: 1, in presence of peptide SEQ ID NO: 1 at 10 μM", "result": 210, "unit": "nM"},
      {"measurement": "IC50", "setting": "SARS-CoV-2 [2]; read-out: IC50 Compound + peptide SEQ ID NO: 2, in presence of peptide SEQ ID NO: 2", "result": 150, "unit": "nM"},
      {"measurement": "IC50", "setting": "SARS-CoV-2 [2]; read-out: IC50 Compound + peptide SEQ ID NO: 3, in presence of peptide SEQ ID NO: 3", "result": 200, "unit": "nM"},
      {"measurement": "IC50", "setting": "SARS-CoV-2 [2]; read-out: IC50 Compound, compound alone", "result": 2700, "unit": "nM"}
    ]},
    {"molecule": "RVTQMNLNDRLASLADKV [SEQ ID NO: 22]", "values": [
      {"measurement": "interaction with the proteins evaluated", "setting": "viral proteins", "result": "did not interact"},
      {"measurement": "Inhibition %", "setting": "SARS-CoV-2 [3]", "result": 20.2, "unit": "%"},
      {"measurement": "inhibition of SARS-CoV-2 in primary cultures of human airway epithelium", "setting": "SARS-CoV-2 [4]", "result": "≤ 20", "unit": "%"}
    ]},
    {"molecule": "RVTQMNLNDRLASLYDKV (modifications not checked)", "note": "[peptide identified in the Sequence Listing as SEQ ID NO: 1]", "values": [
      {"measurement": "Kd", "setting": "[5]", "result": 3.58, "unit": "nM"},
      {"measurement": "koff", "setting": "[5]", "result": 0.000972, "unit": "s⁻¹"},
      {"measurement": "kon", "setting": "[5]", "result": 271000, "unit": "M⁻¹ s⁻¹"},
      {"measurement": "Kd", "setting": "[6]", "result": 1590, "unit": "nM"},
      {"measurement": "Kd", "setting": "[7]", "result": 1.67, "unit": "nM"},
      {"measurement": "Kd", "setting": "[8]", "result": 3.58, "unit": "nM"},
      {"measurement": "Kd", "setting": "[9]", "result": 1.67, "unit": "nM"},
      {"measurement": "koff", "setting": "[9]", "result": 0.000413, "unit": "s⁻¹"},
      {"measurement": "kon", "setting": "[9]", "result": 247000, "unit": "M⁻¹ s⁻¹"},
      {"measurement": "Kd", "setting": "[10]", "result": 1590, "unit": "nM"},
      {"measurement": "koff", "setting": "[10]", "result": 0.00154, "unit": "s⁻¹"},
      {"measurement": "kon", "setting": "[10]", "result": 965, "unit": "M⁻¹ s⁻¹"},
      {"measurement": "Kd", "setting": "[11]", "result": 769, "unit": "nM"},
      {"measurement": "koff", "setting": "[11]", "result": "1.02e-05", "unit": "s⁻¹"}
    ]},
    {"molecule": "RVTQMNLNDRLASLYDKV (modifications not checked)", "note": "[Peptide SEQ ID NO: 2]", "values": [
      {"measurement": "Kd", "setting": "[6]", "result": 18200, "unit": "nM"},
      {"measurement": "Kd", "setting": "[12]", "result": 754, "unit": "nM"},
      {"measurement": "Kd", "setting": "[13]", "result": 523, "unit": "nM"}
    ]},
    {"molecule": "NDRLASLYDKV (modifications not checked)", "note": "[Peptide SEQ ID NO: 14]", "values": [
      {"measurement": "Kd", "setting": "[14]", "result": 5910, "unit": "nM"},
      {"measurement": "Kd", "setting": "[6]", "result": 3200, "unit": "nM"},
      {"measurement": "Kd", "setting": "[15]", "result": 1140, "unit": "nM"}
    ]},
    {"molecule": "NLNDRLASLYDKV (modifications not checked)", "note": "[Peptide SEQ ID NO: 15]", "values": [
      {"measurement": "Kd", "setting": "[14]", "result": 1270, "unit": "nM"},
      {"measurement": "Kd", "setting": "[6]", "result": 62.4, "unit": "nM"},
      {"measurement": "Kd", "setting": "[15]", "result": 7820, "unit": "nM"}
    ]}
  ]
}
